According to patent publication US20230220443A1, “CHARACTERIZATION OF S-ADENOSYL-L-METHIONINE-CONSUMING ENZYMES WITH 1-STEP EZ-MTASE: A UNIVERSAL COUPLED-ASSAY” (ALBERT EINSTEIN COLLEGE OF MEDICINE, priority 2017, published 2023):
Where two headings read alike, the source gives them in different places.

What was measured:
NcDIM-5 [1] = target: T1, NcDIM-5 (Neurospora crassa, UniProt Q8X225); conditions: literature values; cited from earlier work
T1 construct: GST; made in house
T1 sequence (Q8X225 1-331): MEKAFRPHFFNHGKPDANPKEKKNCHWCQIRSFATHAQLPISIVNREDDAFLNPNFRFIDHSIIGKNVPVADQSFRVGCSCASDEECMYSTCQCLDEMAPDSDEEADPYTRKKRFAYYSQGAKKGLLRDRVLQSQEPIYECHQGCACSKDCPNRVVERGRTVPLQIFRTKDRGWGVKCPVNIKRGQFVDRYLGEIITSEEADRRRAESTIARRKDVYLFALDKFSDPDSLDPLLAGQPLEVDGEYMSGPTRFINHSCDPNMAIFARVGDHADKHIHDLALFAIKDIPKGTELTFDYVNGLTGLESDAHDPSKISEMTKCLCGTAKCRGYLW

NcDIM-5 [2] = target: T1, NcDIM-5; test: Reported (literature) NcDIM-5 kinetics; format: biochemical; conditions: from reported values lit. (53)
deaminase PA3170 = test: Deamination of 5DOA by PA3170; format: biochemical, Pseudomonas aeruginosa
Text: FIG. 3A-3C. The reaction catalyzed by deaminase PA3170 and its use as a coupling enzyme for monitoring radical SAM (RS) enzymes activity. (A) The 5′-deoxy-adenosine (5DOA) by-product of radical SAM enzyme reactions is efficiently converted into its inosyl-derivative (5DOI) by the deaminase PA3170. (B) The […] conversion is confirmed by HPLC as these two molecules have distinct retention times. The different spectral signatures between 5DOA and 5DOI (λmax1=259 nm and λmax2=249 nm, respectively) allow continuous monitoring of […] through UV-detection.

GsSDMT = target: T2, GsSDMT (Galdieria sulphuraria, UniProt M2XPA0); test: GsSDMT inhibition by sinefungin (UV-mode); format: biochemical; conditions: pH=6.80, SAM 763 μM, sarcosine 5 mM, 195 nM GsSDMT; read-out: inhibition constant Ki
T2 sequence (M2XPA0 2-297): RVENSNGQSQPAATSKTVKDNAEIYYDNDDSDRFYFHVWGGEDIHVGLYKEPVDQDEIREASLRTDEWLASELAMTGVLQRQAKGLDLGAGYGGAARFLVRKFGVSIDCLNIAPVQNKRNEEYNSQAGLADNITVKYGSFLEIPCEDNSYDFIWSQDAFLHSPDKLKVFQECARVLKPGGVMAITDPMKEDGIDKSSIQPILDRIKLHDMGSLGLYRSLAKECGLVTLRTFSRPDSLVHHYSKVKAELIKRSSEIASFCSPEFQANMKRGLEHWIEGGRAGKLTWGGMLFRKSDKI
Experimental: Briefly, kinetic parameters were determined at 20° C. in a UV-Star 96-well flat bottom plate (Greiner Bio-One, #655801) by continuous monitoring of absorbance at 263 nm using a SpectraMax M5 instrument (Molecular Devices). The 100-μL reaction mixtures from a set of two rows contained 100 mM phosphate buffer pH=6.80, 1 mM βME, 5% glycerol, […] MgCl2, 4 μM coupling deaminase TM0936, 195 nM GsSDMT, saturating level of SAM (763 μM) and various sinefungin concentrations (0.8-244 μM). In the first row, the sarcosine acceptor was omitted to account for background signal (i.e. natural catabolism of sinefungin and SAM decomposition). The methyltransfer reactions started upon addition of sarcosine (5 mM saturating final concentration). Volumes (60-μL) were transferred onto plate and absorbance signals were recorded. The initial rates of the reactions were corrected using data from first row experiments and plotted against sinefungin concentrations. Fit to the following Eq. 7 provided corresponding inhibition constant (Ki):
where V and V0 are the initial velocity with and without inhibitor, respectively. The Michelis constant for SAM substrate is depicted as Km and [SAM] is the concentration of this same molecule. The inhibition constant for sinefungin is represented by Ki and [SIN] is the concentration of this inhibitor. The parameter γ is the Hill coefficient. […]

TbPRMT7 [3] = target: T3, TbPRMT7 (Trypanosoma brucei brucei, UniProt Q582G4); test: Fluorescence-based coupled assay, TbPRMT7 with 8-aza-SAM cofactor; format: biochemical; conditions: 8-aza-SAM 25.0 μM, pH=7.60, fluorescence-mode
T3 construct: made in house
T3 sequence (Q582G4 whole entry): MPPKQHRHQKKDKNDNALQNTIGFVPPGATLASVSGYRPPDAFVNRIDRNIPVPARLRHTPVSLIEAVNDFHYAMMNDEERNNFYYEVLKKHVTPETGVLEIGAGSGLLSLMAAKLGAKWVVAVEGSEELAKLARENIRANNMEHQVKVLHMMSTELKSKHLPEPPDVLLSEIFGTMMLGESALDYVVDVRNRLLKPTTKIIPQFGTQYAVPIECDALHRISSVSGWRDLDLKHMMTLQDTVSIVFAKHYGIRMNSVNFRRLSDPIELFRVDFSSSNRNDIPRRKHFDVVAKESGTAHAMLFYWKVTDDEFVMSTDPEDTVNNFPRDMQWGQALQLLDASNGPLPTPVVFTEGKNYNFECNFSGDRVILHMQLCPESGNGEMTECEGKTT
Experimental: Briefly, the 250-μL reaction mixtures from a same row contained 25 mM phosphate buffer pH=7.60, 1 mM βME, 10% glycerol, 4 μM coupling deaminase TM0936, 805.2 nM TbPRMT7 and various peptide concentrations (0-144.55 μM. The first well contained only 8-aza-SAM without any coupling enzyme, nor methyltransferase; in the second well, peptide acceptor was omitted to account for background signal—natural decomposition of 8-aza-SAM). […]

TbPRMT7 [4] = target: T3, TbPRMT7; test: 1-Step EZ-MTase UV-based coupled assay, TbPRMT7 kinetics (incl. ionic strength); format: biochemical; conditions: pH=7.60, 25 mM phosphate, co-substrate saturating
Experimental: Briefly, the 250-μL reaction mixtures from a same row contained 25 mM phosphate buffer pH=7.60, 1 mM βME, 10% glycerol, 4 μM coupling deaminase TM0936, 1.0 μM TbPRMT7 and various peptide concentrations (16.6-243.3 μM; in the first well, peptide acceptor was omitted to account for background signal—natural decomposition of SAM). Reactions started upon addition of SAM (25.8 μM saturating final concentration) and absorbance was recorded. […] Fit to the Michaelis-Menten model (Eq. 5) provided corresponding kinetic parameters:
Briefly, the measurements consisted of two experimental subsets: MTase reactions (both SAM and peptide added) and MTase blanks (SAM was added without peptide to account for natural SAM decomposition). The 250-μL reaction mixtures from a same row contained 25 mM phosphate buffer pH=7.60, 1 mM βME, 10% glycerol, 4 μM coupling deaminase TM0936, 402 nM TbPRMT7 and various SAM concentrations (1.53-20.0 μM). […] Initial rates were first corrected for background signal, then plotted against SAM concentrations and fitted to the Morrison kinetic model to yield corresponding kinetic parameters.
(§1) Kinetic behavior for 8-aza-SAM against MTases (acceptor sat.)—Briefly, kinetic parameters were determined at 20° C. in a UV-Star 96-well flat bottom plate (Greiner Bio-One, #655801) by continuous monitoring of absorbance at 282 nm using a SpectraMax M5 instrument (Molecular Devices). As for SAM experiments, the measurements consisted of two experimental subsets: MTase reactions (both 8-aza-SAM and acceptor added) and MTase blanks (8-aza-SAM was added without acceptor to account for natural 8-aza-SAM decomposition). The 250-μL (60-μL) reaction mixtures from a same row contained 50 mM phosphate buffer pH=7.60 (7.80), 1 mM βME, 10% glycerol (5% glycerol, 100 μM MgCl2), 4 μM coupling deaminase TM0936, either 1.5 μM CePRMT5 or 402 nM TbPRMT7 (or 610 nM GsSDMT) and various 8-aza-SAM concentrations. […] Initial rates were first corrected for background signal, then plotted against 8-aza-SAM concentrations and fitted to the Michaelis-Menten equation to yield corresponding kinetic parameters. The kinetic data from CePRMT5 were fit to the following Eq. 6 to reflect substrate inhibition observed at higher 8-aza-SAM concentration:
Experiments were conducted following TbPRMT7 protocol above. Briefly, the 250-μL reaction mixtures from a same row contained either 25, 50, 75 or 100 mM phosphate buffer pH=7.60, 1 mM βME, 10% glycerol, 4 μM coupling deaminase TM0936, 1.0 μM TbPRMT7 and various peptide concentrations (16.6-243.3 μM; in the first well, peptide acceptor was omitted to account for background signal—natural decomposition of SAM). Reactions started upon addition of SAM (25.8 μM saturating final concentration) and absorbance was recorded. […] The four fits to the Michaelis-Menten equation (kcat fixed at 29 h^−1) provided corresponding Km values and established impact of ionic strength onto this kinetic parameter.

CePRMT5 [5] = target: T4, CePRMT5 (Caenorhabditis elegans, UniProt P46580); conditions: lit. (46); cited from earlier work
T4 construct: made in house
T4 sequence (P46580 1-734): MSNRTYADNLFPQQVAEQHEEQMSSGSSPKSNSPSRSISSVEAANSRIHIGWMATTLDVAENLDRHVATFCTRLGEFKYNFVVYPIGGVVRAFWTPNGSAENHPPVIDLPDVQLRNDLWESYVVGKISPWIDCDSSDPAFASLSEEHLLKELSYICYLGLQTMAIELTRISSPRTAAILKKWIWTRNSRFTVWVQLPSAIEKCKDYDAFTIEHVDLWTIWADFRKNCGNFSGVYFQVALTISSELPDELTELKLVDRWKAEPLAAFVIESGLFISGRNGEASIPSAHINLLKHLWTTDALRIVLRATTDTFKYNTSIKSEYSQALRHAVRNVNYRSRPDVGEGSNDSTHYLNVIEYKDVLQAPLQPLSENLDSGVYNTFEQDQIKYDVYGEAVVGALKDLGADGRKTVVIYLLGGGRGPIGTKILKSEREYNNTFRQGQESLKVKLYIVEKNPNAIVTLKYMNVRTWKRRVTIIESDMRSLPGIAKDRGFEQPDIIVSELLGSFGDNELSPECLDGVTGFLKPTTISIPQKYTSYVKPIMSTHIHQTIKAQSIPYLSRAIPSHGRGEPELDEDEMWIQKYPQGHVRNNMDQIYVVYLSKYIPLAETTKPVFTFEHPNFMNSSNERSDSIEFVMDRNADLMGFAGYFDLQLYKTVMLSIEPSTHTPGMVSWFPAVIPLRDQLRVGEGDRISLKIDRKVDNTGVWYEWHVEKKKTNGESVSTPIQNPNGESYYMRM

CePRMT5 [6] = target: T4, CePRMT5; test: 1-Step EZ-MTase UV-based coupled assay, CePRMT5 kinetics; format: biochemical; conditions: pH=7.60, co-substrate saturating, 4 μM TM0936; 263 nm (282 nm for 8-aza-SAM)
Experimental: The 250-μL reaction mixtures from a same row contained 50 mM phosphate buffer pH=7.60, 1 mM βME, 10% glycerol, 4 μM coupling deaminase TM0936, 300 nM CePRMT5 and various peptide concentrations (5-180 μM; in the first well, peptide acceptor was omitted to account for background signal—natural decomposition of SAM). The methyltransfer reactions started upon addition of SAM (25 μM saturating final concentration) and absorbance was recorded.
The 250-μL reaction mixtures from a same row contained 50 mM phosphate buffer pH=7.60, 1 mM βME, 10% glycerol, 4 μM coupling deaminase TM0936, 300 nM CePRMT5 and various SAM concentrations (2.35-47.0 μM). […] Initial rates were first corrected for background signal, then plotted against SAM concentrations and fitted to the Morrison kinetic model to yield corresponding kinetic parameters.
as §1, with “parameters.” for “parameters. The kinetic data from CePRMT5 were fit to the following Eq. 6 to reflect substrate inhibition observed at higher 8-aza-SAM concentration:”

GNMT = GNMT (Rattus norvegicus, UniProt P13255); conditions: cited from earlier work
Sequence of GNMT (P13255 whole entry): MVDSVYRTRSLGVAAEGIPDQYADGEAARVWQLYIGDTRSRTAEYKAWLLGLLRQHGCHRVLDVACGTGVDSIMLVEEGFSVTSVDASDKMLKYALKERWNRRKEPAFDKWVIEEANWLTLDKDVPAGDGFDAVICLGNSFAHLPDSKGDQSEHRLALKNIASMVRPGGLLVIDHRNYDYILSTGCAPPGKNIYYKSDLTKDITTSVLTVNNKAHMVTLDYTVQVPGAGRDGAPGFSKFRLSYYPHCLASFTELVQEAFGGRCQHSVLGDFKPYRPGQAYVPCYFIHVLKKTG

Q: For “H3(1-20): H3(1-20) peptide harboring a N-terminal biotinylation, from previous report”, which Km (NcDIM-5 [1]) is on record?
A: 7.4 µM

Q: What about the kcat (NcDIM-5 [1]) of the same molecule?
A: 0.0383 s⁻¹

Q: And the overall catalytic efficiency (NcDIM-5 [2])?
A: 19 µM⁻¹ h⁻¹

Q: Which “conversion into 5DOI by PA3170” value (deaminase PA3170) does the source give for `C[C@H]1O[C@@H](n2cnc3c(N)ncnc32)[C@H](O)[C@@H]1O` [5DOA, 5′-deoxy-adenosine] here?
A: full conversion

Q: For `Nc1ncnc2c1ncn2[C@@H]1O[C@H](C[C@@H](N)CC[C@H](N)C(=O)O)[C@@H](O)[C@H]1O` [sinefungin], which Ki (GsSDMT) is on record?
A: 1.8 ± 0.4 µM

Q: With “H4(1-20): H4(1-20) peptide substrate for CePRMT and TbPRMT7, purchased from GenScript” as the molecule, how does the Km (TbPRMT7 [3]) read?
A: 71 ± 8 µM

Q: What about the kcat (TbPRMT7 [3]) of the same molecule?
A: 0.0108 ± 0.00056 s⁻¹

Q: What about the Km (TbPRMT7 [4]) of the same molecule?
A: 39 ± 3 µM

Q: What about the kcat (TbPRMT7 [4]) of the same molecule?
A: 0.00783 ± 0.00019 s⁻¹

Q: And the Km (CePRMT5 [5])?
A: 54 ± 4 µM

Q: And the kcat (CePRMT5 [5])?
A: 0.00794 ± 0.00019 s⁻¹

Q: What about the Km (CePRMT5 [6]) of the same molecule?
A: 26 ± 2 µM

Q: And the kcat (CePRMT5 [6])?
A: 0.00914 ± 0.00022 s⁻¹

Q: Which Km (GNMT) does the source give for `NCC(=O)O` [glycine] here?
A: 130 µM
